Measured values reported in patent US20060292657A1, “Phex substrates and methods using same” (priority 2003, published 2006).

How the values were obtained:
PHEX = biological target: T1, PHEX (Homo sapiens, UniProt P78562); conditions: applicants previous observation (17); cited from earlier work
T1 sequence (P78562 1-749): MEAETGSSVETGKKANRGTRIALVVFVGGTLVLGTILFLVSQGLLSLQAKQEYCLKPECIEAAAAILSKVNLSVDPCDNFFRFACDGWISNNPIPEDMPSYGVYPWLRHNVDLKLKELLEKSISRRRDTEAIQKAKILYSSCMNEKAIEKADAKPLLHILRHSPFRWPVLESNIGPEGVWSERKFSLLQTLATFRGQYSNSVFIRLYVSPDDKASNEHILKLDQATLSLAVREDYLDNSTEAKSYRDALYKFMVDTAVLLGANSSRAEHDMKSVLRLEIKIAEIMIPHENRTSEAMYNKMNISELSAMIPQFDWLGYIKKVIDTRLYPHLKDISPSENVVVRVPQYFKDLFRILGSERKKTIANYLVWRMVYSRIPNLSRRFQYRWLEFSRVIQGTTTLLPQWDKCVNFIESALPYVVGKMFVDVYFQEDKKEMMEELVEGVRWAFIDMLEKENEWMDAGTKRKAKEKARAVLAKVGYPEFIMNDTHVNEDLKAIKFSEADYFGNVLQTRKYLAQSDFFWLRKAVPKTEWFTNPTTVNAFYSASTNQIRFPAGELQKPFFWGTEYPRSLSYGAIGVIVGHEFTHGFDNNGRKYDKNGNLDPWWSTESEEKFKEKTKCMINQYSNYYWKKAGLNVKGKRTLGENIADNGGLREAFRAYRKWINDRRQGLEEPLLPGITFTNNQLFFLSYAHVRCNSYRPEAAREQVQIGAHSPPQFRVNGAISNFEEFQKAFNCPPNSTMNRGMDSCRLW

secPHEX = biological target: T2, secPHEX (Homo sapiens, UniProt P78562); assay: secPHEX activity with NEP-specific substrate and inhibitor; format: biochemical; conditions: thiorphan 10^−6 M, 10 μM substrate, 30 minutes
T2 construct: pure soluble form of PHEX (secPHEX); made in house
T2 sequence (P78562 46-749 limits assumed): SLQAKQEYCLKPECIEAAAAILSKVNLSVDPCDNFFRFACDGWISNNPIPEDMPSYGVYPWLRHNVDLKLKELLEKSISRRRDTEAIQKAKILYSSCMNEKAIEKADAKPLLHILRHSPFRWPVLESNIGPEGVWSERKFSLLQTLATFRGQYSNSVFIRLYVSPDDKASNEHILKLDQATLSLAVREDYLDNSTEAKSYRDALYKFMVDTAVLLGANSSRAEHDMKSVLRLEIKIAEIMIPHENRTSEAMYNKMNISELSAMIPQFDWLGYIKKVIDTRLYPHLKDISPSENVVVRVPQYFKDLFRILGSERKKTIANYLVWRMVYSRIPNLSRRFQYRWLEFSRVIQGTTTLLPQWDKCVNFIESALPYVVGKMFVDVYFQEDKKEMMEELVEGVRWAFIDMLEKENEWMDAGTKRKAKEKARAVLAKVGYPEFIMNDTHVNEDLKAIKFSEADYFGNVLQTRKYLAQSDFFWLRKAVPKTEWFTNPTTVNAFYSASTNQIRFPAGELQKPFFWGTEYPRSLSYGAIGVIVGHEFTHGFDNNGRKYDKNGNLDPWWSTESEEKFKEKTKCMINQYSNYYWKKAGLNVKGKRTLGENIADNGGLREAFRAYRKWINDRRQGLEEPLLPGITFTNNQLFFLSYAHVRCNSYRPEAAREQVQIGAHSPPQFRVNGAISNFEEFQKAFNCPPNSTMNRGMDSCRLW
Description: (§1) FIG. 4 graphically illustrates the activity of PHEX in the presence of NEP-specific substrate and inhibitor. NEP, secPHEX and membrane-bound PHEX (mPHEX) activities were measured after 30 minutes of incubation in presence of either 10 μM Abz-DRRL-EDDnp (SEQ ID NO:8) (A) or 10 μM Abz-GFSDYK(Dnp)-OH (SEQ ID NO:3) (B). Fluorescence detection (AFU) at γem=420 nm and γex=320 nm was determined as described under the heading “Experimental Procedures” below. When present, thiorphan, a NEP-specific inhibitor, was at a concentration of 10^−6 M. Data are a compilation of three different experiments;
(§2) The activities of membrane-bound PHEX and secPHEX were also compared with the NEP-specific substrate Abz-DRRL-EDDnp (SEQ ID NO:8) (46).

[1] = biological target: T3, membrane-bound PHEX (mPHEX) (Homo sapiens, UniProt P78562); assay: Membrane-bound PHEX activity with NEP-specific substrate and inhibitor; format: biochemical; conditions: thiorphan 10^−6 M, 10 μM substrate, 30 minutes
T3 construct: expressed in transfected cells; host or cells: LLC-PK1 (porcine kidney cells)
Description: as §1, §2

NEP = NEP activity with NEP-specific substrate and inhibitor; format: biochemical; conditions: thiorphan 10^−6 M, 10 μM Abz-DRRL-EDDnp, 30 minutes
Description: as §1
The human recombinant secPHEX was obtained following the procedure previously described (17, WO 00/50580). Purified secPHEX concentration was determined using the Bradford method (DC protein assay kit; Bio-Rad, Mississauga, ON, Canada). Membrane-bound recombinant human PHEX was expressed in LLC-PK1 cells (17, (WO 00/50580)) and membranes were prepared essentially as described by Guo et al. (34). Briefly, transfected cells resuspended in lysis buffer (150 mM NaCl, 20 mM Tris.HCl, pH 7.6) were disrupted by sonication. […] Insoluble material was pelleted by centrifugation at 10,000 g for 15 min and protein concentrations of the supernatant determined using the Bradford method described above. PHEX amounts were evaluated by immunoblotting as described previously (17). […]

[2] = substrate: Nc1ccccc1C(=O)NCC(=O)N[C@@H](Cc1ccccc1)C(=O)N[C@@H](CO)C(=O)N[C@@H](CC(=O)O)C(=O)N[C@@H](Cc1ccc(O)cc1)C(=O)N[C@@H](CCCCNc1ccc([N+](=O)[O-])cc1[N+](=O)[O-])C(=O)O; assay: Hydrolysis by secPHEX added to membranes of vector-transfected LLC-PK1 cells; format: biochemical, human; conditions: other: secPHEX added to membranes from cells transfected with vector alone, 0.01 M Bis-Tris pH 5.5, 150 mM NaCl, 37° C.
Description: (§3) FIG. 3 graphically illustrates hydrolysis of Abz-GFSDYK(Dnp)-OH (SEQ ID NO:3) by secPHEX and membrane-bound PHEX. Abz-GFSDYK(Dnp)-OH (SEQ ID NO:3) at a concentration of 10 μM was incubated at 37° C., in 0.01 M Bis-Tris buffer, pH 5.5 with 150 mM NaCl, containing 2,1 μg total proteins from membranes extracted from LLC-PK1 transfected with vector alone (notes as “A” on the figure), or 2,1 μg total proteins from membranes extracted from LLC-PK1 transfected with the membrane-bound form of human PHEX (noted as “□” on the figure); or 2,1 μg total proteins from membranes extracted from LLC-PK1 transfected with vector alone to which 500 ng purified secPHEX were added (noted as “o” on the figure). Fluorescence was monitored every 4 min for a period of 28 min. Amounts of secPHEX or membrane-bound PHEX (mPHEX) in the enzymatic reactions were evaluated by immunoblotting (Inset). Mock: cells transfected with vector alone;
(§4) The human recombinant secPHEX was obtained following the procedure previously described (17, WO 00/50580). Purified secPHEX concentration was determined using the Bradford method (DC protein assay kit; Bio-Rad, Mississauga, ON, Canada). […] Insoluble material was pelleted by centrifugation at 10,000 g for 15 min and protein concentrations of the supernatant determined using the Bradford method described above. PHEX amounts were evaluated by immunoblotting as described previously (17). […]

Abz-DRRL-EDDnp = biological target: T4, Abz-DRRL-EDDnp
T4 chain: DRRL

Abz-GFSDYK(Dnp)-OH = biological target: T5, Abz-GFSDYK(Dnp)-OH
T5 chain: GFSDYK

[3] = substrate: Nc1ccccc1C(=O)NCC(=O)N[C@@H](Cc1ccccc1)C(=O)N[C@@H](CO)C(=O)N[C@@H](CC(=O)O)C(=O)N[C@@H](Cc1ccc(O)cc1)C(=O)N[C@@H](CCCCNc1ccc([N+](=O)[O-])cc1[N+](=O)[O-])C(=O)O; assay: Hydrolysis by membrane-bound PHEX from transfected LLC-PK1 cells; format: biochemical, human; conditions: other: membrane-bound PHEX, 0.01 M Bis-Tris pH 5.5, 150 mM NaCl, 37° C.
Description: as §3, §4

substance P
cleavage by PHEX (PHEX): could not cleave

O=C(O)CNC(=O)C(CS)Cc1ccccc1 (stereo not drawn) [thiorphan]
inhibition of cleavage of Abz-GFSDYK(Dnp)-OH (secPHEX): did not prevent cleavage
inhibition of cleavage of Abz-GFSDYK(Dnp)-OH [1]: did not prevent cleavage
inhibition of NEP activity (NEP): completely inhibited

B1: secPHEX (Homo sapiens) (protein)
chain: SLQAKQEYCLKPECIEAAAAILSKVNLSVDPCDNFFRFACDGWISNNPIPEDMPSYGVYPWLRHNVDLKLKELLEKSISRRRDTEAIQKAKILYSSCMNEKAIEKADAKPLLHILRHSPFRWPVLESNIGPEGVWSERKFSLLQTLATFRGQYSNSVFIRLYVSPDDKASNEHILKLDQATLSLAVREDYLDNSTEAKSYRDALYKFMVDTAVLLGANSSRAEHDMKSVLRLEIKIAEIMIPHENRTSEAMYNKMNISELSAMIPQFDWLGYIKKVIDTRLYPHLKDISPSENVVVRVPQYFKDLFRILGSERKKTIANYLVWRMVYSRIPNLSRRFQYRWLEFSRVIQGTTTLLPQWDKCVNFIESALPYVVGKMFVDVYFQEDKKEMMEELVEGVRWAFIDMLEKENEWMDAGTKRKAKEKARAVLAKVGYPEFIMNDTHVNEDLKAIKFSEADYFGNVLQTRKYLAQSDFFWLRKAVPKTEWFTNPTTVNAFYSASTNQIRFPAGELQKPFFWGTEYPRSLSYGAIGVIVGHEFTHGFDNNGRKYDKNGNLDPWWSTESEEKFKEKTKCMINQYSNYYWKKAGLNVKGKRTLGENIADNGGLREAFRAYRKWINDRRQGLEEPLLPGITFTNNQLFFLSYAHVRCNSYRPEAAREQVQIGAHSPPQFRVNGAISNFEEFQKAFNCPPNSTMNRGMDSCRLW
notes: pure soluble form of PHEX (secPHEX); made in house
Km [2]: 5 µM

B2: membrane-bound form of human PHEX (Homo sapiens) (protein)
chain: MEAETGSSVETGKKANRGTRIALVVFVGGTLVLGTILFLVSQGLLSLQAKQEYCLKPECIEAAAAILSKVNLSVDPCDNFFRFACDGWISNNPIPEDMPSYGVYPWLRHNVDLKLKELLEKSISRRRDTEAIQKAKILYSSCMNEKAIEKADAKPLLHILRHSPFRWPVLESNIGPEGVWSERKFSLLQTLATFRGQYSNSVFIRLYVSPDDKASNEHILKLDQATLSLAVREDYLDNSTEAKSYRDALYKFMVDTAVLLGANSSRAEHDMKSVLRLEIKIAEIMIPHENRTSEAMYNKMNISELSAMIPQFDWLGYIKKVIDTRLYPHLKDISPSENVVVRVPQYFKDLFRILGSERKKTIANYLVWRMVYSRIPNLSRRFQYRWLEFSRVIQGTTTLLPQWDKCVNFIESALPYVVGKMFVDVYFQEDKKEMMEELVEGVRWAFIDMLEKENEWMDAGTKRKAKEKARAVLAKVGYPEFIMNDTHVNEDLKAIKFSEADYFGNVLQTRKYLAQSDFFWLRKAVPKTEWFTNPTTVNAFYSASTNQIRFPAGELQKPFFWGTEYPRSLSYGAIGVIVGHEFTHGFDNNGRKYDKNGNLDPWWSTESEEKFKEKTKCMINQYSNYYWKKAGLNVKGKRTLGENIADNGGLREAFRAYRKWINDRRQGLEEPLLPGITFTNNQLFFLSYAHVRCNSYRPEAAREQVQIGAHSPPQFRVNGAISNFEEFQKAFNCPPNSTMNRGMDSCRLW
notes: expressed in transfected cells; host or cells: LLC-PK1 (porcine kidney cells)
substrate hydrolysis (fluorescence) (Abz-DRRL-EDDnp): Neither enzyme hydrolyzed this substrate
Km (Abz-GFSDYK(Dnp)-OH): 5×10^-6 M and 10×10^-6 M, for secPHEX and membrane-bound PHEX, respectively
substrate hydrolysis (fluorescence) (Abz-GFSDYK(Dnp)-OH): degradation of the substrate was observed
Km [3]: 10 µM
